From publication PMC6922093

Assays:
[1] = target: RSV strain B18537 DS-Cav1 F glycoprotein (prefusion-stabilized soluble F trimer, subtype B) (RSV subtype B strain B18537 | phage T4); experiment: SEC; 120 mL Superdex-200 gel filtration column in PBS buffer; single monodisperse peak compared with protein standards
[2] = target: RSV strain B18537 DS-Cav1 F glycoprotein (prefusion-stabilized soluble F trimer, subtype B) (RSV subtype B strain B18537 | phage T4); experiment: crystal structure; crystals in 1.2M ammonium sulfate, 0.1M sodium acetate pH5.5, 0.1M lithium sulfate; space group P4(1)32, 1 protomer per asymmetric unit; trimer by crystal symmetry

RSV strain B18537 DS-Cav1 F glycoprotein (prefusion-stabilized soluble F trimer, subtype B) (domain or fragment)
stoichiometry N [1]: 3 | stoichiometry N [2]: 3
